Results as given in patent US20250188185A1 (KOREA UNIVERSITY RESEARCH AND BUSINESS FOUNDATION, published 2025).
Changes are numbered by the printed parent chain.

B1: rituximab Fc variant RTX-PS101 (antibody, human IgG1, kappa)
heavy: QVQLQQPGAELVKPGASVKMSCKASGYTFTSYNMHWVKQTPGRGLEWIGAIYPGNGDTSYNQKFKGKATLTADKSSSTAYMQLSSLTSEDSAVYYCARSTYYGGDWYFNVWGAGTTVTVSAASTKGPSVFPLAPSSKSTSGGTAALGCLVKDYFPEPVTVSWNSGALTSGVHTFPAVLQSSGLYSLSSVVTVPSSSLGTQTYICNVNHKPSNTKVDKKAEPKSCDKTHTCPPCPAPELLGGPSVFLLPPKIKDTLMISRTPEVTCVVVDVSHEDPEVKFNWYVDGVEVHNAKTKPPEEQYNSTLRVVSILTVLHQDWLNGKEYKCKVSNKALPLPEEKTISKQKGQPREPQVYTLPPSRDELTKNQVSLTCLVKGFYPSDIAVEWESNGQQENNYKTTPPVLDSDGSFFLYSKLTVDKSRWQQGNVFSCSVMHEALHNHYTQKSLSLSPGK
light: QIVLSQSPAILSASPGEKVTMTCRASSSVSYIHWFQQKPGSSPKPWIYATSNLASGVPVRFSGSGSGTSYSLTISRVEAEDAATYYCQQWTSNPPTFGGGTKLEIKRTVAAPSVFIFPPSDEQLKSGTASVVCLLNNFYPREAKVQWKVDNALQSGNSQESVTEQDSKDSTYSLSSTLTLSKADYEKHKVYACEVTHQGLSSPVTKSFNRGEC
B2: rituximab Fc variant RTX-PS102 (antibody)
heavy: B1 heavy with H228R, V307I
light: B1 light
B3: rituximab Fc variant RTX-PS107 (antibody, human IgG1, kappa)
heavy: B1 heavy with D360G
light: B1 light

How the values were obtained:
[1] = molecular target: T1, cynomolgus monkey FcγRIII-GST (cynomolgus monkey, UniProt Q8SPW2 17-208); experiment: ELISA, cynomolgus monkey FcγRIII-GST coated at 4 µg/ml, antibody titrated, HRP-Protein L detection
T1 construct: GST fusion form made in Expi293F cells, purified on glutathione resin; not shown: GST fusion partner
T1 sequence (Q8SPW2 17-208): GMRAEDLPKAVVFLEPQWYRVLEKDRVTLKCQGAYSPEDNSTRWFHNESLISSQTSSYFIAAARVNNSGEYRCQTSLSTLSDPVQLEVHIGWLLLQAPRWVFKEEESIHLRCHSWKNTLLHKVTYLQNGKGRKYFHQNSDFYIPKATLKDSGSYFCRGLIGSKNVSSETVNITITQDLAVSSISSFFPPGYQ
Method: Specifically, 50 μl of mouse FcγRIV-GST and cynomolgus monkey FcγRIII-GST diluted to 4 μg/ml in 0.05 M Na₂CO₃ pH 9.6 were immobilized on a flat bottom polystyrene high bind 96-well plate (Costar, 3590) for 16 hours at 4° C., respectively, and then blocked with 100 μl of 4% skim milk (GenomicBase, SKI400) at room temperature for 2 hours. […] After washing, antibody reaction was performed for 1 hour at room temperature, and then washed using 50 μl of HRP-Protein L (GenScript, M00098). 50 μl of a 1-Step Ultra TMB-ELISA substrate solution (Thermo Fisher Scientific, 34028) was added to develop color, and then added with 50 μl each of 2 M H₂SO₄ to terminate the reaction. Absorbance was measured using an Epoch microplate spectrophotometer (BioTek).

FcγRIIIa-158F-GST = molecular target: T2, FcγRIIIa-158F-GST (human, UniProt P08637 17-208); experiment: ELISA, FcγRIIIa-158F-GST coated at 4 µg/ml, antibody titrated, HRP-Protein L detection
T2 construct: not shown: GST (glutathione S-transferase) fusion partner
T2 sequence (P08637 17-208): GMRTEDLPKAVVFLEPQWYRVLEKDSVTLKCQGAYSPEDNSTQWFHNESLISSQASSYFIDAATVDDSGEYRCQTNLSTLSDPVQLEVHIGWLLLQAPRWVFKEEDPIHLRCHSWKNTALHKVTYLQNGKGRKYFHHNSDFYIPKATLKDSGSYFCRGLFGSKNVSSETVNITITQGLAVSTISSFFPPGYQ
Method: After washing, antibody reaction was performed for 1 hour at room temperature, and then washed using 50 μl of HRP-Protein L (GenScript, M00098). 50 μl of a 1-Step Ultra TMB-ELISA substrate solution (Thermo Fisher Scientific, 34028) was added to develop color, and then added with 50 μl each of 2 M H₂SO₄ to terminate the reaction. Absorbance was measured using an Epoch microplate spectrophotometer (BioTek).

Binder	EC50 (read off the curve) [1] [nM]	EC50 (read off the curve) (FcγRIIIa-158F-GST) [nM]
B1	~3	~3
B2	~3	–
B3	~3	~3
